Source: the Immune Epitope Database (IEDB)

Key:
Experiment in all cases: IEDB peptide-MHC binding, purified MHC/competitive/radioactivity; filed as Kd, often an IC50 or EC50 that approximates it; ≥ and ≤ were set here for values at or beyond the usual limits of such assays
HLA-A*03:01 = biological target: HLA-A*03:01
HLA-A*31:01 = biological target: HLA-A*31:01
HLA-A*11:01 = biological target: HLA-A*11:01
HLA-A*68:01 = biological target: HLA-A*68:01
HLA-A*33:01 = biological target: HLA-A*33:01
[1] = source organism: SARS coronavirus Tor2
[2] = source organism: Vaccinia virus WR
[3] = source organism: Dengue virus 4 Philippines/H241/1956
[4] = source organism: Mammarenavirus brazilense
[5] = source organism: Dengue virus 2 Jamaica/1409/1983
[6] = source organism: Dengue virus 3 Martinique/1243/1999
[7] = source organism: Lassa virus GA391
[8] = source organism: Vaccinia virus Copenhagen
[9] = source organism: Dengue virus 1 Nauru/West Pac/1974
[10] = source organism: Mammarenavirus machupoense
[11] = source organism: Mammarenavirus lassaense

Sequence | Kd (HLA-A*03:01; [2]) | Kd (HLA-A*31:01; [2]) | Kd (HLA-A*11:01; [2]) | Kd (HLA-A*68:01; [2]) | Kd (HLA-A*33:01; [2]) | also measured
AANTVIWDY | – | – | – | – | – | Kd (HLA-A*03:01; [1]): ≥ 78000 nM; Kd (HLA-A*31:01; [1]): ≥ 38100 nM; Kd (HLA-A*11:01; [1]): 107 nM; Kd (HLA-A*68:01; [1]): 14200 nM; Kd (HLA-A*33:01; [1]): ≥ 77700 nM
AISAVYFKAK | 8.04 nM | 1640 nM | 26 nM | 2530 nM | ≥ 70000 nM | –
ALTLHWFRK | – | – | – | – | – | Kd (HLA-A*03:01; [3]): 15 nM; Kd (HLA-A*11:01; [3]): 100 nM
AQQFANVISK | 83.8 nM | 1940 nM | 2.68 nM | 17600 nM | ≥ 70000 nM | –
CEMNHVNSMH | – | – | – | – | – | Kd (HLA-A*68:01; [4]): ≥ 48100 nM
DAEACYIYK | 1350 nM | 208 nM | 57.5 nM | 49.2 nM | 234 nM | –
DFIRRKYLIY | 8650 nM | ≥ 70000 nM | ≥ 20200 nM | 1100 nM | 10400 nM | –
DGCWYGMEIR | – | – | – | – | – | Kd (HLA-A*33:01; [5]): 154 nM
DILTYNKTSK | 2320 nM | ≥ 38100 nM | ≥ 21100 nM | 2970 nM | 1760 nM | –
DLTTMPTYK | 757 nM | 630 nM | 293 nM | 128 nM | 914 nM | –
DNQKLSYLK | – | – | – | – | – | Kd (HLA-A*03:01; [4]): ≥ 78000 nM; Kd (HLA-A*31:01; [4]): 2650 nM; Kd (HLA-A*68:01; [4]): 7480 nM; Kd (HLA-A*33:01; [4]): 8370 nM
DTRTPKAKR | – | – | – | – | – | Kd (HLA-A*33:01; source organism: Dengue virus 1 Singapore/S275/1990): 93.7 nM
DVHPGEPVVK | 15400 nM | ≥ 32000 nM | ≥ 23700 nM | 57 nM | ≥ 70000 nM | –
DVRDKRRKY | ≥ 28900 nM | ≥ 77900 nM | ≥ 77900 nM | ≥ 53800 nM | ≥ 77700 nM | –
EFVMCLEAK | ≥ 54200 nM | 9760 nM | 965 nM | 267 nM | 153 nM | –
EFWKLVDRER | – | – | – | – | – | Kd (HLA-A*33:01; source organism: Dengue virus 3 Sri Lanka/1266/2000): 2.92 nM
EIKAEMQLK | 1020 nM | ≥ 43900 nM | 1670 nM | 15.7 nM | 1520 nM | –
EILKINSVKY | 6090 nM | 1040 nM | 6290 nM | 3870 nM | 5170 nM | –
EILRNYLRLY | 489 nM | 3460 nM | 2110 nM | 512 nM | 123 nM | –
ELAELLEMKY | 14200 nM | ≥ 50800 nM | ≥ 29500 nM | 2840 nM | ≥ 70000 nM | –
ELGIAIFNNR | 961 nM | 59.9 nM | 1470 nM | 40.6 nM | 160 nM | –

Sequence | Kd (HLA-A*03:01; [2]) | Kd (HLA-A*31:01; [2]) | Kd (HLA-A*11:01; [2]) | Kd (HLA-A*68:01; [2]) | Kd (HLA-A*33:01; [2]) | also measured
ELYVSSSYK | 0.73 nM | ≥ 77900 nM | 12.4 nM | 6.71 nM | ≥ 54200 nM | –
EMGLLETTKR | – | – | – | – | – | Kd (HLA-A*33:01; [6]): 58.2 nM
ENAVWDQFK | – | – | – | – | – | Kd (HLA-A*03:01; [7]): ≥ 31500 nM; Kd (HLA-A*31:01; [7]): ≥ 77900 nM; Kd (HLA-A*11:01; [7]): 15100 nM; Kd (HLA-A*68:01; [7]): 250 nM; Kd (HLA-A*33:01; [7]): 1020 nM
ESNIEIMDK | 15500 nM | ≥ 77900 nM | 10800 nM | 11.2 nM | ≥ 77700 nM | –
ETKGVERLKR | – | – | – | – | – | Kd (HLA-A*68:01; [6]): 14.2 nM; Kd (HLA-A*33:01; [6]): 336 nM
ETTMRGAKR | – | – | – | – | – | Kd (HLA-A*68:01; [5]): 35.8 nM; Kd (HLA-A*33:01; [5]): 117 nM
FASADNHPK | 7960 nM | 12400 nM | 174 nM | 55.7 nM | 1240 nM | –
FIRIIRPDY | ≥ 78000 nM | 7050 nM | ≥ 56200 nM | 3090 nM | ≥ 24700 nM | –
FLLNISYLCH | – | – | – | – | – | Kd (HLA-A*03:01; [4]): 11800 nM; Kd (HLA-A*31:01; [4]): 5830 nM; Kd (HLA-A*11:01; [4]): ≥ 46600 nM; Kd (HLA-A*33:01; [4]): 5.32 nM
FLLRHYYNKR | 1840 nM | 16.2 nM | 1130 nM | 1850 nM | 17.4 nM | –
FMRFFQLLR | 141 nM | 0.668 nM | 354 nM | 11.7 nM | 1.97 nM | –
FVVTLIPLCR | – | – | – | – | – | Kd (HLA-A*68:01; [3]): 3.1 nM; Kd (HLA-A*33:01; [3]): 11.8 nM
GLACYRFVK | – | – | – | – | – | Kd (HLA-A*03:01; [8]): 22.2 nM; Kd (HLA-A*31:01; [8]): 217 nM; Kd (HLA-A*11:01; [8]): 24 nM; Kd (HLA-A*68:01; [8]): 703 nM; Kd (HLA-A*33:01; [8]): 1830 nM
GMLIYSMWGK | 8.57 nM | 271 nM | 17.5 nM | 54.6 nM | 9910 nM | –
GQLKLNWFK | – | – | – | – | – | Kd (HLA-A*11:01; [5]): 28.1 nM
GSIKIKQDVR | 8060 nM | 281 nM | 611 nM | 253 nM | 2480 nM | –
GTILIKVEYK | – | – | – | – | – | Kd (HLA-A*11:01; [6]): 69.2 nM; Kd (HLA-A*68:01; [6]): 38.2 nM
GVTLFFLSGR | – | – | – | – | – | Kd (HLA-A*31:01; [9]): ≥ 70000 nM; Kd (HLA-A*33:01; [9]): 56.2 nM
HYIHCFRKPH | – | – | – | – | – | Kd (HLA-A*03:01; [10]): ≥ 70000 nM; Kd (HLA-A*31:01; [10]): 89.8 nM; Kd (HLA-A*11:01; [10]): ≥ 69700 nM; Kd (HLA-A*68:01; [10]): ≥ 70100 nM; Kd (HLA-A*33:01; [10]): 589 nM
IAARGYISTR | – | – | – | – | – | Kd (HLA-A*68:01; [5]): 12 nM
ICKMPLPTR | – | – | – | – | – | Kd (HLA-A*03:01; [11]): ≥ 40300 nM; Kd (HLA-A*31:01; [11]): 36.8 nM; Kd (HLA-A*11:01; [11]): 6030 nM; Kd (HLA-A*68:01; [11]): 16100 nM; Kd (HLA-A*33:01; [11]): 775 nM
